This assay deals with Aar-MBP fusion protein (E. coli (EAEC 042)). The assay can be described thus: SPR.

B1: AggR-MBP fusion protein (natural protein)
chain: MKLKQNIEKEIIKINNIRIHQYTVLYTSNCTIDVYTKEGSNTYLRNELIFLERGINISVRLQKKKSTVNPFIAIRLSSDTLRRLKDALMIIYGISKVDACSCPNWSKGIIVADADDSVLDTFKSIDHNDDSRITSDLIYLISKIENNRKIIESIYISAVSFFSDKVRNTIEKDLSKRWTLAIIADEFNVSEITIRKRLESEYITFNQILMQSRMSKAALLLLDNSYQISQISNMIGFSSTSYFIRLFVKHFGITPKQFLTYFKSQ
The molecule B1 had a dissociation constant (Kd) of 20 to 40 nM.

Source of the values: article PMC4983702.
